Test system: Cc1cn([C@H]2C[C@H](O)[C@@H](COP(=O)(O)OP(=O)(O)OP(=O)(O)O)O2)c(=O)[nH]c1=O
Assay: purified protein
Conditions: poly(rA)/oligo(dT)15 template/primer; 25-250 μM TTP; labelled compound

PFV PR-RT (Human spumaretrovirus)
Km: 45 (± 12) μM
kcat: 7.1 s⁻¹

— PMC2835651
